Experimental findings from US20220313819A1 (ARCH ONCOLOGY, published 2022) are described below.

Positions count from the first letter of the chain named. Names and notes keep the numbering of the source.

The chains are these.
B1: VLX4 IgG1 (xi) (antibody)
heavy: not shown
light: DVLMTQTPLSLPVNLGDQASISCRSRQSIVHTNGNTYLGWFLQKPGQSPKLLIYKVSNRFSGVPDRFSGSGSGTDFTLTISRVEAEDLGVYYCFQGSHVPYTFGGGTKLEIKRTVAAPSVFIFPPSDEQLKSGTASVVCLLNNFYPREAKVQWKVDNALQSGNSQESVTEQDSKDSTYSLSSTLTLSKADYEKHKVYACEVTHQGLSSPVTKSFNRGEC
notes: murine-human chimera, human IgG1, human kappa
B2: VLX4 IgG1 N297Q (xi) (antibody)
heavy: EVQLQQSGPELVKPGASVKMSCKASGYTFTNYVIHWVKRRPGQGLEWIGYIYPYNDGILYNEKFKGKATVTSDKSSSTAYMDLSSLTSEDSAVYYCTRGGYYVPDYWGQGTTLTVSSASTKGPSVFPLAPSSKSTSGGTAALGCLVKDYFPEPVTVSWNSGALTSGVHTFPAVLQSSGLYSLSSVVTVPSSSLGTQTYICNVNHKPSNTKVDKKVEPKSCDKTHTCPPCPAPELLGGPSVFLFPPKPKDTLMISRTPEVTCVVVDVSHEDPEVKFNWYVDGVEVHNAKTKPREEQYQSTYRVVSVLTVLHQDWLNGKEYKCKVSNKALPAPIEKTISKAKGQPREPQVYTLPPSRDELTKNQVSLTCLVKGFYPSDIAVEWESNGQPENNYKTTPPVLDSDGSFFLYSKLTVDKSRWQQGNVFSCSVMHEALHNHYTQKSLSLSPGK
light: B1 light
notes: murine-human chimera, human IgG1-N297Q, human kappa
B3: VLX8 IgG4 PE (xi) (antibody)
heavy: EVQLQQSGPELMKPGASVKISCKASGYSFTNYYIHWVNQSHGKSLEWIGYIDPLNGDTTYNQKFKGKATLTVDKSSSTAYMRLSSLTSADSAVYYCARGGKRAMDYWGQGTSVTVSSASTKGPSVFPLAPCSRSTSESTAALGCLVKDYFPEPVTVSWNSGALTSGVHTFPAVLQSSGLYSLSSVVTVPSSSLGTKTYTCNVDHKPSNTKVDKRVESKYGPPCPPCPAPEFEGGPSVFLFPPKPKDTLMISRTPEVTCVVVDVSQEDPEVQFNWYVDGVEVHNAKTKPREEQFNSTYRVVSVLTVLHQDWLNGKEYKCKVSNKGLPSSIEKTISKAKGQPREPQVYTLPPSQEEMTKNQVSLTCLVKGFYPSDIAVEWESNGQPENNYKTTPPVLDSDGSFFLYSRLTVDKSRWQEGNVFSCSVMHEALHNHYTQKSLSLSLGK
light: DIQMTQTTSSLSASLGDRVTISCRASQDISNYLNWYQQKPDGTVKLLIYYTSRLYSGVPSRFSGSGSGTDYSLTISNLEQEDIATYFCQQGNTLPWTFGGGTKLEIKRTVAAPSVFIFPPSDEQLKSGTASVVCLLNNFYPREAKVQWKVDNALQSGNSQESVTEQDSKDSTYSLSSTLTLSKADYEKHKVYACEVTHQGLSSPVTKSFNRGEC
notes: murine-human chimera; tied through the names Vx8mur-H03/Vx8murL03 full length chains, not by an explicit VLX8 statement; also called VLX8 IgG4PE chimera
B4: VLX8 IgG1 N297Q (xi) (antibody)
heavy: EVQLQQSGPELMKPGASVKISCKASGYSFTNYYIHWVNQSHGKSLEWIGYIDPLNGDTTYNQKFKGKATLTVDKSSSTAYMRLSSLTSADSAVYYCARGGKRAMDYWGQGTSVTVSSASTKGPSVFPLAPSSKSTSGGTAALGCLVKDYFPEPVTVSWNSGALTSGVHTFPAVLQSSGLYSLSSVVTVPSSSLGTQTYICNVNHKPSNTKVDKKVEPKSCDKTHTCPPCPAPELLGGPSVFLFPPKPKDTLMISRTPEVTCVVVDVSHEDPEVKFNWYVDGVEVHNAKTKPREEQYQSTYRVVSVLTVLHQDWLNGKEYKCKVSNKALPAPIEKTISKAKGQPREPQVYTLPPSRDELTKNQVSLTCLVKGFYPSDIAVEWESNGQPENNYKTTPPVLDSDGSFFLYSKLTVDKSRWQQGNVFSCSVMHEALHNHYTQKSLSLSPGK
light: B3 light
notes: murine-human chimera
B5: VLX8hum_08 IgG2 (antibody, V domains shown)
VH: EVQLVQSGAEVKKPGESLKISCKGSGYSFTNYYIHWVRQMPGKGLEWMGYIDPLNGDTTYNQKFKGQVTISADKSISTAYLQWSSLKASDTAMYYCARGGKRAMDYWGQGTLVTVSS
VL: DIQMTQSPSSLSASVGDRVTITCRASQSISNYLNWYQQKPGKAPKLLIYYTSRLYSGVPSRFSGSGSGTDFTLTISSLQPEDFATYYCQQGNTLPWTFGQGTKVEIKR
B6: VLX8hum_07 IgG2 (antibody, V domains shown)
VH: QVQLVQSGAEVKKPGSSVKVSCKASGYSFTNYYIHWVRQAPGQGLEWMGYIDPLNGDTTYNQKFKGRVTITADESTSTAYMELSSLRSEDTAVYYCARGGKRAMDYWGQGTLVTVSS
VL: B5 VL
B7: VLX8hum_06 IgG2 (antibody, V domains shown)
VH: B6 VH with S16A, I70M, A72R, E74T, A79V
VL: B5 VL
B8: VLX8hum_09 IgG2 (antibody, V domains shown)
VH: B6 VH with N61A, K65Q
VL: B5 VL
B9: VLX9 IgG2 (xi) (antibody)
heavy: QVQLQQFGAELAKPGASVQMSCKASGYTFTNYWIHWVKQRPGQGLEWIGYTDPRTDYTEYNQKFKDKATLAADRSSSTAYMRLSSLTSEDSAVYYCAGGGRVGLGYWGHGSSVTVSSASTKGPSVFPLAPCSRSTSESTAALGCLVKDYFPEPVTVSWNSGALTSGVHTFPAVLQSSGLYSLSSVVTVPSSNFGTQTYTCNVDHKPSNTKVDKTVERKCCVECPPCPAPPVAGPSVFLFPPKPKDTLMISRTPEVTCVVVDVSHEDPEVQFNWYVDGVEVHNAKTKPREEQFNSTFRVVSVLTVVHQDWLNGKEYKCKVSNKGLPAPIEKTISKTKGQPREPQVYTLPPSREEMTKNQVSLTCLVKGFYPSDIAVEWESNGQPENNYKTTPPMLDSDGSFFLYSKLTVDKSRWQQGNVFSCSVMHEALHNHYTQKSLSLSPGK
light: DVFMTQTPLSLPVSLGDQASISCRSSQNIVQSNGNTYLEWYLQKPGQSPKLLIYKVFHRFSGVPDRFSGSGSGTDFTLKISRVEAEDLGVYYCFQGSHVPWTFGGGTKVEIKRTVAAPSVFIFPPSDEQLKSGTASVVCLLNNFYPREAKVQWKVDNALQSGNSQESVTEQDSKDSTYSLSSTLTLSKADYEKHKVYACEVTHQGLSSPVTKSFNRGEC
notes: murine-human chimera; also called VLX9 IgG2 chimera
B10: VLX9 IgG1 (xi) (antibody)
heavy: not shown
light: B9 light
notes: murine-human chimera
B11: VLX9 IgG4 PE (xi) (antibody)
heavy: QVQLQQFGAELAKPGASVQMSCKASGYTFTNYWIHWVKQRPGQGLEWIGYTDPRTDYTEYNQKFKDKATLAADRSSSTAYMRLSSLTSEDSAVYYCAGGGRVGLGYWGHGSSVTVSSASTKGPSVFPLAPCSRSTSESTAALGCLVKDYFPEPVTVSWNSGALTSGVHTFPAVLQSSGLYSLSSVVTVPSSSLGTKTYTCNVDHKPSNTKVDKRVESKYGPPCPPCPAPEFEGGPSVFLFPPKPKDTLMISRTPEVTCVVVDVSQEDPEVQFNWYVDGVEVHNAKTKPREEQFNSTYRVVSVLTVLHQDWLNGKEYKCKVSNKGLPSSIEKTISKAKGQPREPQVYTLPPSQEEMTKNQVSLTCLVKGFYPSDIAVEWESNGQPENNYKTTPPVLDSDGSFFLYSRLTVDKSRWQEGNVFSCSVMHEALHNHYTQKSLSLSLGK
light: B9 light
notes: murine-human chimera
B12: VLX9 IgG1 N297Q (xi) (antibody)
heavy: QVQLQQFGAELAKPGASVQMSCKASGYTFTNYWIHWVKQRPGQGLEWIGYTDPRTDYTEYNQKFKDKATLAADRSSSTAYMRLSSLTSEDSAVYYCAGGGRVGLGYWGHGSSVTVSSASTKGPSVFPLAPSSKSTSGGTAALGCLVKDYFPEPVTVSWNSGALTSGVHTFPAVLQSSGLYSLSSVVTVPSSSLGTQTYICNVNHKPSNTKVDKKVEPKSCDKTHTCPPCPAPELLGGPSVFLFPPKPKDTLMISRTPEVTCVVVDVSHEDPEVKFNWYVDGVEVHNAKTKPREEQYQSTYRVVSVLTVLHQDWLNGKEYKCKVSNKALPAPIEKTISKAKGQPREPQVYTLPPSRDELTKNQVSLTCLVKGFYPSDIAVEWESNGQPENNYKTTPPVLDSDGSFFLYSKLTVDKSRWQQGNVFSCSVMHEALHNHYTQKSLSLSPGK
light: B9 light
notes: murine-human chimera
B13: VLX9 IgG (murine) (antibody, V domains shown)
VH: QVQLQQFGAELAKPGASVQMSCKASGYTFTNYWIHWVKQRPGQGLEWIGYTDPRTDYTEYNQKFKDKATLAADRSSSTAYMRLSSLTSEDSAVYYCAGGGRVGLGYWGHGSSVTVSS
VL: DVFMTQTPLSLPVSLGDQASISCRSSQNIVQSNGNTYLEWYLQKPGQSPKLLIYKVFHRFSGVPDRFSGSGSGTDFTLKISRVEAEDLGVYYCFQGSHVPWTFGGGTKVEIK
notes: murine IgG; tied through the names Vx9murH04/Vx9murL04; also called murine VLX9 antibody

The target of the first assay is T1, human CD47 (human, UniProt Q08722 19-292).
T1 construct: also called hCD47; CD47 on OV10 hCD47 cells, human RBCs, Jurkat cells and normal human cells
Nature of the assay: flow cytometry, human RBCs. As for the experimental part:
(§1) Binding activities of chimeric and humanized VLX4, VLX8, and VLX9 mAbs to human CD47 on hRBCs were also determined using flow cytometry.
As for B1, the Kd was found to be 0.104 nM.

With B2, binding was characterised by a dissociation constant (Kd) of 0.092 nM.

Molecule B3 yielded a Kd of 0.077 nM.

For the molecule B4, the Kd was 0.091 nM.

The molecule B5 had a Kd of 0.82 nM.

The molecule B6 showed a Kd of 0.671 nM.

B7 yielded a Kd of 0.246 nM.

In turn, B8 displayed a dissociation constant Kd of 1.74 nM.

Molecule B9 returned an equilibrium dissociation constant (Kd) of 0.742 nM.

The molecule B10 gave a dissociation constant (Kd) of 0.381 nM.

B11 showed a Kd of 0.126 nM.

Regarding B12, binding was put at a Kd of 0.19 nM.

Another assay concerns the target T1, human CD47. Nature of the assay: cell ELISA, OV10 hCD47 cells. As for the experimental part:
OV10 hCD47 cells were grown in IMDM medium containing 10% heat inactivated fetal bovine serum (BioWest; S01520). […] Cells were washed, various concentrations of purified antibodies added in IMDM and incubated at 37° C. for 1 hr in […]. Cells were then washed with media and incubated for an additional hour at 37° C. with HRP labelled secondary anti-human antibody (Promega) diluted 1/2500 in media. Cells were washed three times with PBS, and the peroxidase substrate 3,3′, 5,5′-tetramethylbenzidine was added (Sigma; Catalog #T4444). […] The apparent binding affinities of these clones to human OV10 hCD47 cells was determined by non-linear fit (Prism GraphPad software).
In turn, B1 yielded an equilibrium dissociation constant (Kd) of 0.315 nM.

On to B2, for which the dissociation constant Kd was determined as 0.258 nM.

For the molecule B3, the dissociation constant Kd stood at 0.056 nM.

For B4, the affinity, expressed as Kd, was 0.042 nM.

As to B5, the affinity, expressed as Kd, was 0.464 nM.

As for B6, the equilibrium dissociation constant (Kd) came out at 0.46 nM.

For B7, the Kd came to 0.403 nM.

Consider B8, for which the affinity, expressed as Kd, was 0.68 nM.

B9 displayed an equilibrium dissociation constant (Kd) of 0.88 nM.

B10 displayed an equilibrium dissociation constant (Kd) of 0.28 nM.

B11 registered a dissociation constant (Kd) of 0.293 nM.

In turn, B12 had a dissociation constant Kd of 0.275 nM.

The next assay addresses T2, recombinant human His-CD47 (human, UniProt Q08722 19-139).
T2 construct: bought reagent; also called His-tagged human CD47 (Acro Biosystems); not shown: His tag
Nature of the assay: ELISA, adsorbed His-CD47, pH 6. As for the experimental part:
(§2) Binding by soluble anti-CD47 mAbs to immobilized recombinant human CD47 and to human CD47 expressed on cells was measured in vitro. For the in vitro binding to recombinant CD47, His-CD47 (AcroBiosystems) was adsorbed to high-binding microtiter plates overnight at 4° C. The wells were washed and varying concentrations of anti-CD47 mAbs were added to the wells in buffers with a of either pH 6 or pH 8 for 1 hour. The wells were washed and then incubated with HRP-labelled secondary antibody for 1 hour at pH 6 or pH 8 followed by addition of peroxidase substrate. The apparent affinities were calculated using non-linear fit model (Graphpad Prism).
For B9, the Kd was 0.13 nM.

Regarding B11, the dissociation constant Kd stood at 0.133 nM.

In the case of B12, the Kd turned out to be 0.099 nM.

Turning to B13, the dissociation constant (Kd) was 0.091 nM.

A further assay deals with T2, recombinant human His-CD47. Kind of assay: ELISA, adsorbed His-CD47, pH 8. As for the experimental part: as §2
Regarding B9, the Kd was 0.137 nM.

On to B11, for which the Kd stood at 0.16 nM.

Take B12: the Kd is 0.135 nM.

Consider B13, for which the equilibrium dissociation constant (Kd) amounted to 0.076 nM.

A further assay has as its target T1, human CD47. Nature of the assay: flow cytometry on freshly isolated human RBCs, FITC-labelled donkey anti-human antibody, MFI. As for the experimental part:
FIG. 7. Binding of VLX9 Humanized mAbs to Human RBCs. […] RBCs were incubated for 60 minutes at 37° C. with various concentrations of VLX9 mAbs, washed and incubated for 1 hr with FITC-labelled donkey anti-human antibody. Cells were washed and antibody binding measured using flow cytometry.
as §1
For the molecule B9, the “EC50 (read off the curve)” value was around 0.6 nM.

A further assay addresses T1, human CD47. The description is as above. This is another data set of the same source. As for the experimental part:
FIG. 4A. Binding of VLX8 Humanized mAbs to Human RBCs. […] RBCs were incubated for 1 hr at 37° C. with various concentrations of VLX8 mAbs, washed and incubated for 1 hr with FITC-labeled donkey anti-human antibody. Cells were washed and antibody binding measured using flow cytometry.
as §1
For the molecule B3, the concentration giving a half-maximal response (EC50 (read off the curve)) is around 0.2 nM.

Another assay has as its target T1, human CD47. Described as above. The source holds these as a separate data set. How it is done: FIG. 4B. Binding of VLX8 Humanized mAbs to Human RBCs. […] RBCs were incubated for 1 hr at 37° C. with various concentrations of VLX8 mAbs, washed and incubated for 1 hr with FITC-labeled donkey anti-human antibody. Cells were washed and antibody binding measured using flow cytometry.
as §1
For B5, the “EC50 (read off the curve)” value was around 0.7 nM.
